In patent US20200384107A1 (PRIMATOPE THERAPEUTICS, published 2020):

T1: rhesus CD40-MBP fusion (rhesus macaque (M. mulatta), UniProt P25942 21-120 (human entry))
T1 construct: also called CD40-MBP fusions of rhesus
T1 chain: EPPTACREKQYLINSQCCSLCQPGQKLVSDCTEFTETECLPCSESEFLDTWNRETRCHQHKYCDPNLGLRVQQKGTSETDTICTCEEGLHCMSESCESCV

B1: 2C10 (murine anti-CD40 monoclonal antibody) (antibody, V domains shown)
VH: QVQLQQSGAELAKPGASVKMSCKASGYTFTNYWMHWVKQRPGQGLEWIGYINPSNDYTKYNQKFKDKATLTADKSSNTAYMQLGSLTSEDSAVYYCARQGFPYWGQGTLVTVSA
VL: QIVLTQSPAIMSASPGEKVTMTCSASSSVSYMHWYHQRSGTSPKRWIYDTSKLASGVPARFSGSGSGTSYSLTISSMEAEDAATYYCHQLSSDPFTFGSGTKLEIK
notes: In some assays it was conjugated to a fluorochrome (APC); also called murine 2C10; parent 2C10 mAb
B2: humanized 2C10, clone 2.189.2 (2C10_h3 + 2C10_l2) (antibody, V domains shown)
VH: QVQLVQSGAEVKKPGASVKVSCKASGYTFTNYWMHWVRQAPGQRLEWIGYINPSNDYTKYNQKFKDRATLTADKSANTAYMELSSLRSEDTAVYYCARQGFPYWGQGTLVTVSS
VL: EIVLTQSPATLSLSPGERATLSCSASSSVSYMHWYQQKPGQAPRRWIYDTSKLASGVPARFSGSGSGTDYTLTISSLEPEDFAVYYCHQLSSDPFTFGGGTKVEIK
notes: also called h2C10; mAb 2.189.2

Legend:
[1] = target: T2, human CD40 on human blood B cells (CD20+ cells of PBMCs) (human, UniProt P25942 21-277); assay: flow cytometry blocking assay: human B cells incubated with 2C10, then with histidine-tagged soluble CD154, read by histidine staining
T2 construct: whole, on cells; also called human CD20+ B cells; human B cells
Method: To assess the ability of 2C10 to bind to both rhesus and human CD40, recombinantly expressed human or rhesus CD40 were adsorbed to ELISA plates and reacted with varying concentrations of 2C10. Binding of 2C10 to CD40 was detected using goat anti-mouse IgG-HRP in an ELISA. […] To confirm the ability of 2C10 to block binding of its cognate ligand, CD154, rhesus and human B cells were incubated with escalating concentrations of 2C10 or an isotype control and then incubated with histidine-tagged soluble CD154 (R&D Systems, Minneapolis, Minn.) and analyzed for histidine expression.

[2] = target: T3, human CD40, recombinant / purified (human, UniProt P25942 21-193, limits assumed); assay: kinetics on human CD40; Biacore by paragraph 276, Forte Bio with biotinylated CD40 on streptavidin biosensors by paragraph 270
T3 construct: also called hCD40; purified CD40

[3] = target: T4, CD40 (as in Table 2, species and form not stated); assay: binding kinetics, method not stated
T4 construct: also called CD40 Receptor

[4] = target: T3, human CD40, recombinant / purified; assay: CD40 binding affinity, method not given; reference murine 2C10
rhesus CD40-MBP fusion = target: T1, rhesus CD40-MBP fusion; assay: BIACore 3000, h2C10 amine-coupled to a CM5 chip, rhesus CD40-MBP injected at 0-160 nM
Method: (§1) Humanized 2C10 antibodies (h2C10) were immobilized to the surface of CM5 chip by amine coupling. Different concentrations of CD40-MBP fusions of human, rhesus, and baboon were analyzed for affinity on a BIACore 3000. The binding affinity was calculated with BIAevaluation software version 4.1.1.

human CD40-MBP fusion = target: T5, human CD40-MBP fusion (human, UniProt P25942 21-193; P0AEX9 27-392 = MBP, limits assumed); assay: BIACore 3000, h2C10 amine-coupled to a CM5 chip, human CD40-MBP injected at 0-160 nM
T5 construct: also called CD40-MBP fusions of human
Method: as §1

baboon CD40-MBP fusion = target: T6, baboon CD40-MBP fusion (baboon, UniProt P0AEX9 27-392 = MBP); assay: BIACore 3000, h2C10 amine-coupled to a CM5 chip, baboon CD40-MBP injected at 0-160 nM
T6 construct: also called CD40-MBP fusions of baboon; not shown: baboon CD40 part of the MBP fusion
Method: as §1

[5] = target: T3, human CD40, recombinant / purified; assay: kinetics on human CD40, compared with murine 2C10
[6] = target: T3, human CD40, recombinant / purified; assay: kinetics on human CD40, compared with parent 2C10

| Binder | IC50 (read off the curve) [1] [µg/mL] | Kd [2] [nM] | koff [2] [s⁻¹] | kon [2] [M⁻¹ s⁻¹] | Kd [3] [nM] | koff [3] [s⁻¹] | kon [3] [M⁻¹ s⁻¹] | fold of the affinity of murine 2C10 [4] [fold] | Kd (rhesus CD40-MBP fusion) [nM] | Kd (human CD40-MBP fusion) [nM] | Kd (baboon CD40-MBP fusion) [nM] | fold of affinity against murine 2C10 [5] [fold] | fold reduction in affinity relative to the parent 2C10 mAb [6] [fold] |
| --- | --- | --- | --- | --- | --- | --- | --- | --- | --- | --- | --- | --- | --- |
| B1 | ~1 | 0.222 | 6.01e-05 | 148000 | 0.273 | 1.86e-06 | 2730 |  |  |  |  |  |  |
| B2 |  | 0.39 | 0.000128 | 179000 |  |  |  | ≤ 2 | 2.61 | 4.72 | 2.57 | ≤ 2 | ~2 |
